Source: paper PMC6141708

Target: recombinant GST-RhoA (UniProt P61586)
Assay: pull-down; recombinant GST-RhoA on beads; lysates of 293T cells transfected with WT or S9A Fam65b-GFP; 2 h at 4°C; pull-down buffer; anti-GFP immunoblot, band intensities in the pull-down normalised to the total lysate, four independent experiments

Chain of UniProt P61586 (P61586 whole entry): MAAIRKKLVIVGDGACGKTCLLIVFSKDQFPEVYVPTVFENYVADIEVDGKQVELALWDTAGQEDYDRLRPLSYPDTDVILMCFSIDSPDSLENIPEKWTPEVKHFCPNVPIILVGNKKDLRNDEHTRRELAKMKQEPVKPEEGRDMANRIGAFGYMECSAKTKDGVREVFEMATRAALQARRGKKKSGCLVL

Fam65b(S9A)-GFP (isoform 2) (natural protein)
fold of Fam65b bound to RhoA against WT Fam65b-GFP: 1.8 fold
